{
  "source": "patent US9884910B2",
  "about": "“Anti-PDGF-C antibodies” (ThromboGenics NV, priority 2012, dated 2018)",
  "molecules": {"B1": {"name": "16B1: murine monoclonal anti-PDGF-C antibody, IgG1 κ; VL SEQ ID NO:15, VH SEQ ID NO:18 (antibody, listed as Mus musculus, V domains shown)", "VH": "EVQLVESGGDLVKPGGSLKLSCAASGFTFSNYGMSWVRQTPDKRLEWVATIGSGGSYTYYPDSVKGRFTISRDSAKNTLYLQMSSLKSEDTAMYYCARQAPLWDYSDYWGQGTTLTVSS", "VL": "DVLMTQTPLSLPVSLGDQASISCRSNQSIVHSNGDTYLEWYLQKPGQSPKLLIYKVSNRFSGVPDRFSGSGSGTDFTLKISRVEAEDLGVYYCFQGSHVPPTFGGGTKLEIK"}},
  "system": "glioblastoma tumor, U118",
  "experiment": "Antitumor effect against U118 glioblastoma xenograft",
  "assay_type": "in vivo",
  "description": "For the evaluation of anti-tumor activity of the antibodies, animals were weighed and tumors measured 2 times weekly using a caliper. Tumor weights were calculated using the formula mass (mg)=[length (mm)×width (mm)^2]/2. Antitumor activity evaluation was done at the single dose of 20 mg/kg. A dosage producing a 20% body weight loss (bwl) or 10% or more drug deaths, was considered an excessively toxic dosage. Animal body weights included the tumor weights. The primary efficacy end point is the tumor growth inhibition (% TGI). Changes in tumor volume for each treated (T) and control (C) are calculated for each tumor by subtracting the tumor volume on the day of first treatment (staging day) from the tumor volume on the specified observation day. The median ΔT is calculated for the treated group and the median ΔC is calculated for the control group. Then the ratio ΔT/ΔC is calculated and expressed as a percentage of TGI: ΔT=Tt−T0 ΔC=Ct−C0 % TGI=[1−(median(Tt−T0)/median(Ct−C0)]*100\nThe antitumor effect of 29H1, 5A2 and 16B1 was evaluated against a measurable glioblastoma tumor, U118, which express both PDGF-C and its receptor, PDGFRa, S.C. implanted in female SCID Beige mice. Control group was treated with PBS alone. The antibodies were administered by an intraperitoneal (IP) injection, and treatment started on day 28 post-tumor implantation and was performed twice a week.",
  "data": [
    {"molecule": "B1", "values": [
      {"measurement": "TGI (%) Day 53", "setting": "20 mg/kg IP twice a week from day 28, day 53 post-tumor implantation", "value": 8.25, "unit": "%"},
      {"measurement": "TGI (%) Day 60", "setting": "20 mg/kg IP twice a week from day 28, day 60 post-tumor implantation", "value": 27.6, "unit": "%"},
      {"measurement": "TGI (%) Day 63", "setting": "20 mg/kg IP twice a week from day 28, day 63 post-tumor implantation", "value": 11.5, "unit": "%"},
      {"measurement": "TGI (%) Day 67", "setting": "20 mg/kg IP twice a week from day 28, day 67 post-tumor implantation", "value": 11.9, "unit": "%"},
      {"measurement": "tumor growth block (in words)", "setting": "ip, at the different time points evaluated", "value": "failed to block tumor growth"}
    ]}
  ]
}
